For two molecules, Kd results are on record in article PMC7673040 (Nature Communications, 2020).

The target of this assay is human nascent polypeptide-associated complex (NAC), unlabeled (human, UniProt Q13765 1-215; P20290-2 1-162). Description: other fluorescence titration; competition: 1 nM RNC^BDP and 20 nM NAC^Cy3B pre-incubated, unlabeled NAC or NACmt added; FRET fit to Eq. (6); Assay buffer with 1 mg/mL BSA. The conditions noted are these: both partners purified.

B1: ribosome-nascent chain complex bearing the first ~90 amino acids of pPL(ssmt), labelled with BODIPY-FL on the nascent chain (complex)
chain: MDSKGSSQKGSKLLLRRVVSNLLLCQGVVSTPVCPNGPGNCQVSLRDLFDRAVMVSHYIHDLSSEMFNEFDKRYAQGKGFITMALNSCHTV
modifications: axial-trans-cyclooct-2-en-L-Lysine (TCOK) at an amber codon one residue upstream of the signal sequence, labelled with tetrazine-conjugated BODIPY-FL (BDP)
B1: the Kd came to 0.5 nM.

B2: ribosome-nascent chain complex bearing the first ~90 amino acids of pPL(ss), labelled with BODIPY-FL on the nascent chain (complex)
chain: MDSKGSSQKGSKLALALLLLLLALALCQGVVSTPVCPNGPGNCQVSLRDLFDRAVMVSHYIHDLSSEMFNEFDKRYAQGKGFITMALNSCHTV
modifications: axial-trans-cyclooct-2-en-L-Lysine (TCOK) at an amber codon one residue upstream of the signal sequence, labelled with tetrazine-conjugated BODIPY-FL (BDP)
The molecule B2 yielded a Kd of 0.55 nM.
